Laboratory results as given in publication PMC8441738 (MedComm, 2021).

B1: MA1 monoclonal antibody (antibody, V domains shown)
VH: QVQLKESGPGLVAPSQSLSITCTVSGFSLSDYSISWIRQPPGKGLEWLGVIWGGGSTYYNSALKSRLSISKDNSKSQVFLKMNSLQTDDTAMYYCAKHPLYYGSNSDGYYAMDYWGQGTSVTVSS
VL: DIVMTQSHKFMSTSVGDRVSITCKASQDVGIVVAWYQQKPGQSPKLLIYWASTRHTGVPDRFTGSGSGTDFTLTISNVQSEDLADYFCQQYSSYPLTFGGGTKLEIK
notes: also called group I mAb; source: hybridoma cell line or transfection of linear expression cassettes
B2: MA1scFv (scFv, V domains shown)
VH: B1 VH
VL: B1 VL

What was measured:
[1] = target: T1, SARS-CoV-2 RBD (residues Arg319-Phe541), His-tagged (SARS-CoV-2, UniProt P0DTC2); test: SPR; conditions: both partners purified
[2] = target: T1, SARS-CoV-2 RBD (residues …); test: cryo-EM structure; conditions: both partners purified

| Binder | binding result [1] | binding result [2] |
| --- | --- | --- |
| B1 | binds | – |
| B2 | – | binds |
